# From patent US20150258192A1, “COMPOSITIONS AND METHODS FOR PREVENTING OR TREATING CHRONIC LUNG ALLOGRAFT DYSFUNCTION (CLAD) AND IDIOPATHIC PULMONARY FIBROSIS (IPF)” (priority 2014, published 2015)
# No end group written: not given here.
# Assays:
# Test in all cases: Kinase Profiling Assay
# Type in all cases: biochemical
# Conditions in all cases: peptide 100 μM
# [1] = target: T1, ALK4(h) (Homo sapiens, UniProt P36896)
# T1 sequence (P36896 24-505): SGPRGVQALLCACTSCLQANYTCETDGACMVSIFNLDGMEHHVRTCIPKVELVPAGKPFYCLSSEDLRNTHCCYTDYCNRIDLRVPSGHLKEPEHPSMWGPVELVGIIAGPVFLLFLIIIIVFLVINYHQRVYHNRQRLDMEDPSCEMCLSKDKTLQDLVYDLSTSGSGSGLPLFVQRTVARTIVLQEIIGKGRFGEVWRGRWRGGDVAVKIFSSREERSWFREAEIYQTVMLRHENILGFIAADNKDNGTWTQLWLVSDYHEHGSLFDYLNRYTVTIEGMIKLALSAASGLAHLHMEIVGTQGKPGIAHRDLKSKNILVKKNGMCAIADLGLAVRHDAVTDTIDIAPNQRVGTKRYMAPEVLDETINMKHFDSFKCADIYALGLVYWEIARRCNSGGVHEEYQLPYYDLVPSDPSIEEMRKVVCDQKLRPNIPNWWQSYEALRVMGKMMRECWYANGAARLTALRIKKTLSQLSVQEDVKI
# Method in brief: (§1)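 Measured twice per kinase, activity in presence of MK2 inhibitory peptide was calculated against a 100% activity control after radiometric phosphorylation of a cationic substrate, anionic filter capture and scintillation counting; one of 266 human kinases profiled for specificity.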
# [2] = target: T2, ASK1(h) (Homo sapiens, UniProt Q99683)
# T2 sequence (Q99683 1-1374): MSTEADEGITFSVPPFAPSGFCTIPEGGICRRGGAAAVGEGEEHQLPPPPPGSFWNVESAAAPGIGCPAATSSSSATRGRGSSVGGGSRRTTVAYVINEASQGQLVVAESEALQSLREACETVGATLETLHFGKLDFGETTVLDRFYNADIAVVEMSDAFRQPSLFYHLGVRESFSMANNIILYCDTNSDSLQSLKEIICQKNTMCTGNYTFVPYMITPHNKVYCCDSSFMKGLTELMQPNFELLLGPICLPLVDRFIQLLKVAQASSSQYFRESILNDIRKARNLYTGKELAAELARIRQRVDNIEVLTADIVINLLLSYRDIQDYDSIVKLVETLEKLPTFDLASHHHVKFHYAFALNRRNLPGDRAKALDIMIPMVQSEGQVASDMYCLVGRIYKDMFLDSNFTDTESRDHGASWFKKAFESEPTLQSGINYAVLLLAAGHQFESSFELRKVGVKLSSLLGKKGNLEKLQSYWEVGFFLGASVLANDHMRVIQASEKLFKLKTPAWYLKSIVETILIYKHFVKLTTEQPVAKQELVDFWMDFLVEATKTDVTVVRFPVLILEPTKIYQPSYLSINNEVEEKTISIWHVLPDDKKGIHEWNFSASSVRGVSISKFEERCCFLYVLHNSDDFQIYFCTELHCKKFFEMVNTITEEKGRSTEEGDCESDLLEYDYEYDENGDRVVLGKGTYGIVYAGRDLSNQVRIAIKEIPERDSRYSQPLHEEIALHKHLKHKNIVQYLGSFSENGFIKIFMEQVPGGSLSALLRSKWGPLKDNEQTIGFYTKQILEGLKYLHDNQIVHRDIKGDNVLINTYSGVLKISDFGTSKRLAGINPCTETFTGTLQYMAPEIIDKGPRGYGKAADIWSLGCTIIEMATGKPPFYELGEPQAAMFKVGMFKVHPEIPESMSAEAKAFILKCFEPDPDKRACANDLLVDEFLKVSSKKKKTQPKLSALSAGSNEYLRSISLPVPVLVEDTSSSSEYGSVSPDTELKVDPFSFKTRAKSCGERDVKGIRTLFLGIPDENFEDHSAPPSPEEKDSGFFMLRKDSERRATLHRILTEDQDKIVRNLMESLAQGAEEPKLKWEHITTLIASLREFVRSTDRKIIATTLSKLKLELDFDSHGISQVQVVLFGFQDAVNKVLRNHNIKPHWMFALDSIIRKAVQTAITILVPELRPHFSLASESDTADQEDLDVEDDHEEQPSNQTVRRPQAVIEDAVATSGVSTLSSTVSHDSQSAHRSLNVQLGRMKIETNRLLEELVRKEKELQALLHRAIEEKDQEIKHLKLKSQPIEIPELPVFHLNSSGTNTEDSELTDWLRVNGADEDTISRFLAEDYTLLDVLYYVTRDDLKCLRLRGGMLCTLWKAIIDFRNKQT
# Method in brief: as §1
# [3] = target: CDK9/cyclin T1(h) (Homo sapiens, UniProt P50750)
# Method in brief: as §1
# [4] = target: FGFR2(h) (Homo sapiens, UniProt P21802)
# Method in brief: as §1
# [5] = target: FGFR3(h) (Homo sapiens, UniProt P22607)
# Method in brief: as §1
# [6] = target: T3, IR(h) (Homo sapiens, UniProt P06213)
# T3 construct: purchased Millipore
# Method in brief: as §1
# [7] = target: T4, NEK2(h) (Homo sapiens, UniProt P51955)
# T4 construct: purchased Millipore
# T4 sequence (P51955 1-445): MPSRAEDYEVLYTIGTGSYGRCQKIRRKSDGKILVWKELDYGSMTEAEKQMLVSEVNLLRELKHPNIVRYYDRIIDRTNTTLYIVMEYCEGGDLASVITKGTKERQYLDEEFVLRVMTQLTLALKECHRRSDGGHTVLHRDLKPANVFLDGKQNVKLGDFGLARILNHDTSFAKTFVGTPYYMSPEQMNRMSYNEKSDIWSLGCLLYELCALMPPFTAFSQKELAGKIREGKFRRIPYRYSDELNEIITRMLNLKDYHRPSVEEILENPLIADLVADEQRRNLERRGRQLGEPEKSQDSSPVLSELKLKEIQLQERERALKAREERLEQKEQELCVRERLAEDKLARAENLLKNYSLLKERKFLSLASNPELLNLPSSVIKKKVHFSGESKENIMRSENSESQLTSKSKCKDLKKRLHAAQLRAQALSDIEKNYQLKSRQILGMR
# Method in brief: as §1
# [8] = target: PKCβII(h) (Homo sapiens, UniProt P05771)
# Method in brief: as §1
# [9] = target: Plk3(h) (Homo sapiens, UniProt Q9H4B4)
# Method in brief: as §1
# [10] = target: T5, Rsk3(h) (Homo sapiens, UniProt Q15349)
# T5 construct: purchased Millipore
# Method in brief: as §1
# Sequence of FGFR3(h) (P22607 23-806): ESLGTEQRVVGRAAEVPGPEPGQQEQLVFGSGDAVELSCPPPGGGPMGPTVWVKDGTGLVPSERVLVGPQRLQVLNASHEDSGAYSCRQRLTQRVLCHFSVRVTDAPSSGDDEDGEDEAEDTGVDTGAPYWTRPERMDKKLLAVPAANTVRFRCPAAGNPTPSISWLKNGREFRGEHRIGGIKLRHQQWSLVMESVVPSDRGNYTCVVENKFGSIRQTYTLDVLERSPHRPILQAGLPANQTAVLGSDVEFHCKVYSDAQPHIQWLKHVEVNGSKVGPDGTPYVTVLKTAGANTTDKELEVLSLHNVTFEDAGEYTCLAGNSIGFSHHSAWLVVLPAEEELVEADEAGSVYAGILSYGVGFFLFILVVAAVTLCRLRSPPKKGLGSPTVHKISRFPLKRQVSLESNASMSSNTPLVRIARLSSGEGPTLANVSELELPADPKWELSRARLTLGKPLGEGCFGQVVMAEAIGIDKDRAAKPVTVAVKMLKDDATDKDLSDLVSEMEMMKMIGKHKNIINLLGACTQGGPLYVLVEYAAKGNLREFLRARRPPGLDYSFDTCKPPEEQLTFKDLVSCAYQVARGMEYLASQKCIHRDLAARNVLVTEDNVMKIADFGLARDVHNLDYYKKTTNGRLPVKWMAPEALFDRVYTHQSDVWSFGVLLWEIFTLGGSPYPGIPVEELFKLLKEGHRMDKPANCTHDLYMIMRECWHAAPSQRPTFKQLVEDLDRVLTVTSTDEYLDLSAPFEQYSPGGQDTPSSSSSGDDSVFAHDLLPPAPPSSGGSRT
# Sequence of CDK9/cyclin T1(h) (P50750 whole entry): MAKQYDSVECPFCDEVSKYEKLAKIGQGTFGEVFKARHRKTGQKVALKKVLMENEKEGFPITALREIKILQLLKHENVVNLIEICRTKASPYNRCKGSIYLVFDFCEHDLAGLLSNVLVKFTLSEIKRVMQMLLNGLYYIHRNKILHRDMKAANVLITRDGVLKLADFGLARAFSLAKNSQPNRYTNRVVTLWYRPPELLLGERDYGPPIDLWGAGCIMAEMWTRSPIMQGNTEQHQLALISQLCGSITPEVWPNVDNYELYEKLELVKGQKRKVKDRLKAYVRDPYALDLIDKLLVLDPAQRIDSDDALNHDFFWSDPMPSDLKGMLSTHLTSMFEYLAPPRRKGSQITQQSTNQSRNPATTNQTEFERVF
# Sequence of CDK9/cyclin T1(h) (O60563 whole entry partner): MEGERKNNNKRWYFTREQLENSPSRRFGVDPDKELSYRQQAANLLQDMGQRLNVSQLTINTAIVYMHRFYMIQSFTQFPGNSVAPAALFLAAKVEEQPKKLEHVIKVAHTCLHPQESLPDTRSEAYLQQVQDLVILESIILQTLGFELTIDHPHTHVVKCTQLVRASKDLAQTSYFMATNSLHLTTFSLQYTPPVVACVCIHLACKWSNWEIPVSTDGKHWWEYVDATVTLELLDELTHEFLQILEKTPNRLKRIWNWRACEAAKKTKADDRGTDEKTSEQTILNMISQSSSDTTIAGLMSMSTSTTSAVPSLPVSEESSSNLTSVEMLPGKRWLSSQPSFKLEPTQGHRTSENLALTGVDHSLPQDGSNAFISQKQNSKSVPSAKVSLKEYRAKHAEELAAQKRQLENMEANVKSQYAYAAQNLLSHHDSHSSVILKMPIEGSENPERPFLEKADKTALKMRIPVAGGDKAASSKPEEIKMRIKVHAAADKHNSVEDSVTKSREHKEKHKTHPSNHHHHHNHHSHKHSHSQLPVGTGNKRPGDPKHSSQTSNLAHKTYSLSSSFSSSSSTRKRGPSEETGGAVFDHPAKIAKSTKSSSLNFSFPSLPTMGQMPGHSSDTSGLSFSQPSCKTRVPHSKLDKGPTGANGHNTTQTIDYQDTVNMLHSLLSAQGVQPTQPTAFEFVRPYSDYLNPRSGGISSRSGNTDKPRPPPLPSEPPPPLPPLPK
# Sequence of Plk3(h) (Q9H4B4 whole entry): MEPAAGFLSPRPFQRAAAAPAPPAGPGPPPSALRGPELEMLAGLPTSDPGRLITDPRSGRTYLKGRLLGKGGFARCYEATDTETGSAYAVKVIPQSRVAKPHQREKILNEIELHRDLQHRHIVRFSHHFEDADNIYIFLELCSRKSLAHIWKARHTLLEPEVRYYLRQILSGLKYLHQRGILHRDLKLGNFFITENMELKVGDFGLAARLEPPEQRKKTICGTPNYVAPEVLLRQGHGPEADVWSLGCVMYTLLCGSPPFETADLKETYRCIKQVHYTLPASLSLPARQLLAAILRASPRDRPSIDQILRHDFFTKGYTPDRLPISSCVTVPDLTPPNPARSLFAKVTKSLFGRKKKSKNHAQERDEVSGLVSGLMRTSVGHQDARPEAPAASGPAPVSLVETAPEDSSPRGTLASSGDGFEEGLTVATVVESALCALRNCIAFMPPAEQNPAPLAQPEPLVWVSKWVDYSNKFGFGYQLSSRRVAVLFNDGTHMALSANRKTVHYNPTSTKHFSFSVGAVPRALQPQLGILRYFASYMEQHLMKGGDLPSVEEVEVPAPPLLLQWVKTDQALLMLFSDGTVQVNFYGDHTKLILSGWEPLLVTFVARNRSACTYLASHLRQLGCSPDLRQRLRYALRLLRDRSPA
# T5 sequence (Q15349 whole entry): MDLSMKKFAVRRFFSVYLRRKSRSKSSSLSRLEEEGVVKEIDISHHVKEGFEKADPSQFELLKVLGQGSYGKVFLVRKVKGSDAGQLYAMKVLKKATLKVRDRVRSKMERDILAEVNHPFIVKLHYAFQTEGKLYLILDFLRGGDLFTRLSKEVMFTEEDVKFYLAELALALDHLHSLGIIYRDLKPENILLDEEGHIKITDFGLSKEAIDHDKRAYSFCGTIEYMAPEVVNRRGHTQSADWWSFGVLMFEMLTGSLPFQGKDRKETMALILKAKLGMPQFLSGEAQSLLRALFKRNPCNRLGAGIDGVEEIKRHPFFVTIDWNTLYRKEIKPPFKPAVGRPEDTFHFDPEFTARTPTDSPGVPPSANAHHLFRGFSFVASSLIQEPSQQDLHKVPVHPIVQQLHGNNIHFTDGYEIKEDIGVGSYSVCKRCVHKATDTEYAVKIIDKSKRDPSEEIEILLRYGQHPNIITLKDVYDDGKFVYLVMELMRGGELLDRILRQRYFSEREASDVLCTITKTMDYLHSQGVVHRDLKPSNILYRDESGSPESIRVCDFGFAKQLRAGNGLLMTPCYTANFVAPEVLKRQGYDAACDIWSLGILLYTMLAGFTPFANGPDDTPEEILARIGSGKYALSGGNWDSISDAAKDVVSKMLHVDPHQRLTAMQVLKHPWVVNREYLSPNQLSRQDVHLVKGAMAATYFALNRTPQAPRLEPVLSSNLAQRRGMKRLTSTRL
# Sequence of PKCβII(h) (P05771 1-673 isoform P05771-2): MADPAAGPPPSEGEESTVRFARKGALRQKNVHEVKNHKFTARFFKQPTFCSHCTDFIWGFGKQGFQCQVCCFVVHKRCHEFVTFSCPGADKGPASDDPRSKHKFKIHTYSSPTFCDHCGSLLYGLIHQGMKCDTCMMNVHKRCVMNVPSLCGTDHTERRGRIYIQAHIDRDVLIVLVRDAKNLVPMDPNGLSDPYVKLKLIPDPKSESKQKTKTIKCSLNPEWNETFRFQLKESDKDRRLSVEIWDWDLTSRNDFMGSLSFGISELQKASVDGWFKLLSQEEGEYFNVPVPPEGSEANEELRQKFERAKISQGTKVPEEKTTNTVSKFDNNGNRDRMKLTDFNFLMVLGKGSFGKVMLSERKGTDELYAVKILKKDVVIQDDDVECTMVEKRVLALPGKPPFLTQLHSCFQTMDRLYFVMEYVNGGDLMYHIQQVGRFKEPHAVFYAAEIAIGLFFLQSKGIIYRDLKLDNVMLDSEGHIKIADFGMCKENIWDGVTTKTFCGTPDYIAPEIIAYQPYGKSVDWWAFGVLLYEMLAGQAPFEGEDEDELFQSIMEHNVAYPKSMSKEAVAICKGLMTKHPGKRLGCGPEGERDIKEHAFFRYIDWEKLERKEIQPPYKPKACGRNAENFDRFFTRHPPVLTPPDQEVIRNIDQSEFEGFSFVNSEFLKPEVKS
Sequence,% activity [1] [%],% activity [2] [%],% activity [3] [%],% activity [4] [%],% activity [5] [%],% activity [6] [%],% activity [7] [%],% activity [8] [%],% activity [9] [%],% activity [10] [%]
HRRIKAWLKKIKALARQLGVAA (Mammal) [MMI-0500],81,-4,6,12,10,95,0,3,122,23
YARAAARQARAKALNRQLGVA (Mammal) [MMI-0200],152,101,–,73,208,90,97,100,–,–
YARAAARQARAKALARQLGVAA [MMI-0100],124,–,–,–,73,–,–,–,–,–
FAKLAARLYRKALARQLGVAA [MMI-0300],140,80,91,14,–,96,78,82,127,76
KAFAKLAARLYRKALARQLGVAA [MMI-0400],130,69,235,18,0,85,61,75,129,71
